Reference: patent publication US20230348603A1 (VERSEAU THERAPEUTICS, published 2023)

Tests used:
Human VSIG4-L-His [1] = target: T1, Human VSIG4-L-His (human, UniProt Q9Y279 20-283); test: SPR (FJB)
T1 construct: long isoform ECD with His tag; also called hVSIG4-L
T1 sequence: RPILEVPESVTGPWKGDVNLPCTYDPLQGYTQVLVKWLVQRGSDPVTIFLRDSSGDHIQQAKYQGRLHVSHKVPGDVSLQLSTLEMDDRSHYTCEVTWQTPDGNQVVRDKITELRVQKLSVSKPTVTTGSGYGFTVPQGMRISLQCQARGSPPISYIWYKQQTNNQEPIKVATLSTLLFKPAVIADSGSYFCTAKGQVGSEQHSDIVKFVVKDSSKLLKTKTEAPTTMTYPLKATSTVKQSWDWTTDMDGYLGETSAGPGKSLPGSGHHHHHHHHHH

[2] = target: T2, Cynomolgus Monkey VSIG4-L-His (cynomolgus monkey); test: SPR (FJB)
T2 construct: ECD with His tag; also called cyVSIG4-L; cyno VSIG4-L-His
T2 chain: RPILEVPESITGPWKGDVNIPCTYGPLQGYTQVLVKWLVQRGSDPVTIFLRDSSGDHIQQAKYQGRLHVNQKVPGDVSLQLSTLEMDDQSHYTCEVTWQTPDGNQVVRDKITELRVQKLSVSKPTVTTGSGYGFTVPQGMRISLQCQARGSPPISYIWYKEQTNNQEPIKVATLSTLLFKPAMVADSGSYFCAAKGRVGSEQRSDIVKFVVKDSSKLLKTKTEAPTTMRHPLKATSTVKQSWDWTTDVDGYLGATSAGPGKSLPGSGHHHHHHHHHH

Human VSIG4-L-Fc [3] = target: T3, Human VSIG4-L-Fc (human); test: ligand blocking of C3b, IgG
T3 construct: also called hVSIG4-L-Fc; hVSIG4-L

Human VSIG4-L-Fc [4] = target: T3, Human VSIG4-L-Fc; test: ligand blocking of iC3b, IgG
Human VSIG4-L-Fc [5] = target: T3, Human VSIG4-L-Fc; test: ELISA, IgG 50 nM on coated antigen;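 also: Mouse-human chimeric IgG4 antibodies incubated 1 h on plate-coated VSIG4 proteins, bound IgG detected with HRP-labelled anti-human IgG, irrelevant antibody and protein as specificity controls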
Human VSIG4-S-Fc = target: T4, Human VSIG4-S-Fc (human); test: ELISA, IgG 50 nM on coated antigen;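 also: Mouse-human chimeric IgG4 antibodies incubated 1 h on plate-coated VSIG4 proteins, bound IgG detected with HRP-labelled anti-human IgG, irrelevant antibody and protein as specificity controls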
T4 construct: short isoform ECD fused to human Fc1; also called hVSIG4-S

[6] = target: T2, Cynomolgus Monkey VSIG4-L-His; test: ELISA, IgG 50 nM on coated antigen;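 also: Mouse-human chimeric IgG4 antibodies incubated 1 h on plate-coated VSIG4 proteins, bound IgG detected with HRP-labelled anti-human IgG, irrelevant antibody and protein as specificity controls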
Mouse VSIG4-His = target: T5, Mouse VSIG4-His (mouse); test: ELISA, IgG 50 nM on coated antigen;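 also: Mouse-human chimeric IgG4 antibodies incubated 1 h on plate-coated VSIG4 proteins, bound IgG detected with HRP-labelled anti-human IgG, irrelevant antibody and protein as specificity controls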
T5 construct: ECD with His tag; also called mVSIG4
T5 chain: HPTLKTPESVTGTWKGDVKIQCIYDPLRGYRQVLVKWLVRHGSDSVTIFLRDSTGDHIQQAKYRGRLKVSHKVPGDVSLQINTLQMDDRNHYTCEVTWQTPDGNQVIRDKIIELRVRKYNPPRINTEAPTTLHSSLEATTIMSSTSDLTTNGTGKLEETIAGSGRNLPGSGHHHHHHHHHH

Human VSIG4-L-His [7] = target: T1, Human VSIG4-L-His; test: BLI, IgG on AHC sensor, antigen 100 nM
[8] = target: T2, Cynomolgus Monkey VSIG4-L-His; test: BLI, IgG on AHC sensor, antigen 100 nM
Human VSIG4-L-Fc [9] = target: T3, Human VSIG4-L-Fc; test: BLI binning on hVSIG4-L-Fc, competitor 12A08 first;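 also: normalized to binding of second antibody without first competitor antibody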
Human VSIG4-L-Fc [10] = target: T3, Human VSIG4-L-Fc; test: BLI binning on hVSIG4-L-Fc, competitor 12A12 first;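 also: normalized to binding of second antibody without first competitor antibody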
Human VSIG4-L-Fc [11] = target: T3, Human VSIG4-L-Fc; test: BLI binning on hVSIG4-L-Fc, competitor 13H11 first;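 also: normalized to binding of second antibody without first competitor antibody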
Human VSIG4-L-Fc [12] = target: T3, Human VSIG4-L-Fc; test: BLI binning on hVSIG4-L-Fc, competitor 14D12 first;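 also: normalized to binding of second antibody without first competitor antibody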
Human VSIG4-L-Fc [13] = target: T3, Human VSIG4-L-Fc; test: BLI binning on hVSIG4-L-Fc, competitor 15A06 first;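 also: normalized to binding of second antibody without first competitor antibody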
Human VSIG4-L-Fc [14] = target: T3, Human VSIG4-L-Fc; test: BLI binning on hVSIG4-L-Fc, competitor 15C03 first;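 also: normalized to binding of second antibody without first competitor antibody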
Human VSIG4-L-Fc [15] = target: T3, Human VSIG4-L-Fc; test: BLI binning on hVSIG4-L-Fc, competitor 15C04 first;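 also: normalized to binding of second antibody without first competitor antibody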
Human VSIG4-L-Fc [16] = target: T3, Human VSIG4-L-Fc; test: BLI cross-blocking on hVSIG4-L-Fc, competitor 12A12 first
Human VSIG4-L-Fc [17] = target: T3, Human VSIG4-L-Fc; test: BLI cross-blocking on hVSIG4-L-Fc, competitor 14C05 first
Human VSIG4-L-Fc [18] = target: T3, Human VSIG4-L-Fc; test: BLI cross-blocking on hVSIG4-L-Fc, competitor 16G02 first
Human VSIG4-L-Fc [19] = target: T3, Human VSIG4-L-Fc; test: ligand competition ELISA (FJB), blocked ligand C3b
[20] = target: T6, Human VSIG4-L-CHO (human VSIG4 long isoform on CHO-K1 cells) (human, UniProt Q9Y279 20-399); test: flow cytometry (FJB), 200 nM mAb, huVSIG4-L CHO-K1 cells
T6 construct: also called hVSIG4-L (flow cytometry)
T6 sequence: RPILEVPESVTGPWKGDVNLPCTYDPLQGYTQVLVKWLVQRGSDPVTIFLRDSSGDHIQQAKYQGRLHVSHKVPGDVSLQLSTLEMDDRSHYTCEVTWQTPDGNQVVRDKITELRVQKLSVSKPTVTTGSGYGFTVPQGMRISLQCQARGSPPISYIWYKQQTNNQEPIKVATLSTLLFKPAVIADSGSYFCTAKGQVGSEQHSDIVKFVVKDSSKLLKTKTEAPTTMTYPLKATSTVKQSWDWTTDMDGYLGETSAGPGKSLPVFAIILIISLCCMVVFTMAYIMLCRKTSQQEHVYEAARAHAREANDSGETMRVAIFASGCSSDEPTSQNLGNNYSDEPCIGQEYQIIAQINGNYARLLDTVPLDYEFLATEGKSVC

[21] = target: T6, Human VSIG4-L-CHO (human VSIG4 long …); test: flow cytometry (FJB), 200 nM mAb, huVSIG4-L CHO-K1 over parental CHO-K1

T4 sequence (chain, as listed by the source limits assumed): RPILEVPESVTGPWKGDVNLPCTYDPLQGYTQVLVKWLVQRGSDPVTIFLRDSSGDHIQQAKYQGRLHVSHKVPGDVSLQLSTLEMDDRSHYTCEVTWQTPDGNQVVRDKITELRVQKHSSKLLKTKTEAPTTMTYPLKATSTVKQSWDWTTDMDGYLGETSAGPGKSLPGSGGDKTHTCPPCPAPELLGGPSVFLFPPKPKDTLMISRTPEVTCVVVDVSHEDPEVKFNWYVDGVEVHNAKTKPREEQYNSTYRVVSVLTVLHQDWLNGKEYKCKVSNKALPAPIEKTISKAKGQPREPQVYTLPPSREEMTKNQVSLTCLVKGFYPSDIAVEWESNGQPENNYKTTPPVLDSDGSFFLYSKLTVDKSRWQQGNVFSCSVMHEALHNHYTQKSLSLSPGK

Kd (Human VSIG4-L-His [1]): 8.6 nM | Kd [2]: 6.8 nM | Percent Blocking C3b (Human VSIG4-L-Fc [3]): 96% | Percent Blocking iC3b (Human VSIG4-L-Fc [4]): 98% | ELISA OD450 (Human VSIG4-L-Fc [5]): 4.45 OD450 | ELISA OD450 (Human VSIG4-S-Fc): 4.18 OD450 | ELISA OD450 [6]: 4.4 OD450 | ELISA OD450 (Mouse VSIG4-His): 0.054 OD450 | KD relative to parental chimera (Human VSIG4-L-His [7]): 1 fold | KD relative to parental chimera [8]: 1 fold | normalized maximum binding nm shift (Human VSIG4-L-Fc [9]): 0.86 normalized | normalized maximum binding nm shift (Human VSIG4-L-Fc [10]): 0.13 normalized | normalized maximum binding nm shift (Human VSIG4-L-Fc [11]): 0.74 normalized | normalized maximum binding nm shift (Human VSIG4-L-Fc [12]): 0.7 normalized | normalized maximum binding nm shift (Human VSIG4-L-Fc [13]): 0.77 normalized | normalized maximum binding nm shift (Human VSIG4-L-Fc [14]): 0.65 normalized | normalized maximum binding nm shift (Human VSIG4-L-Fc [15]): 0.76 normalized | binding signal (nm shift) (Human VSIG4-L-Fc [16]): 0.13 nm | binding signal (nm shift) (Human VSIG4-L-Fc [17]): 0.72 nm | binding signal (nm shift) (Human VSIG4-L-Fc [18]): 0.16 nm | IC50 (Human VSIG4-L-Fc [19]): 0.9 nM | Binding (200 nM) MFI [20]: 106000 MFI | Binding (200 nM) Fold-Over-Parental [21]: 291 fold
B1: 12A12 mouse/human chimeric IgG4 (S228P) kappa (antibody, V domains shown)
VH: QVQMKQSGAELAKPGASVKMSCKASGYTFTNYWMHWVKQRPGQGLEWIGYINPSTGYTDYNQNFKDRATLTADKSSSTAYMQLSSLTSEDSAVYYCIRGSDYYGRDYWGQGTTLTVSS
VL: DIQMTQTTSSLSASLGDRVTISCRASQDISNYLNWYQQKPDGTLKLLIYYTSRLHSGVPSRFSGSGSGTDYSLTISNLEQEDIATYFCRQGNTLPWTFGGGTKLEIKR
